{
  "source": "patent US20030170849",
  "key": {"[1]": {"target": "T1, C4α peptide (SEQ ID NO:23), modeled on tyrosine sulfation sites in the α chain of the fourth component of complement", "T1 chain": "EANEDYEDYEYDELPAC"}, "[2]": {"target": "T2, HCII peptide (SEQ ID NO:24), modeled on the tyrosine sulfation site in heparin cofactor II", "T2 chain": "EGEEDDDYLDLEKIFC"}},
  "data": [
    {"protein": "Human TPST-1-HPC4 fusion protein (protein) MEDQVDPRLIDGKDPVGKLKQNLLLACLVISSVTVFYLGQHAMECHHRIEERSQPVKLESTRTTVRTGLDLKANKTFAYHKDMPLIFIGGVPRSGTTLMRAMLDAHPDIRCGEETRVIPRILALKQMWSRSSKEKIRLDEAGVTDEVLDSAMQAFLLEIIVKHGEPAPYLCNKDPFALKSLTYLSRLFPNAKFLLMVRDGRASVHSMISRKVTIAGFDLNSYRDCLTKWNRAIETMYNQCMEVGYKKCMLVHYEQLVLHPERWMRTLLKFLQIPWNHSVLHHEEMIGKAGGVSLSKVERSTDQVIKPVNVGALSKWVGKIPPDVLQDMAVIAPMLAKLGYDPYANPPNYGKPDPKIIENTRRVYKGEFQLPDFLKEKPQTEQVE", "values": [
      {"measurement": "specific activity of TPST-1 extracts relative to TPST-2 extracts assayed in parallel", "setting": "[1]", "result": "9-fold higher using the C4α peptide"},
      {"measurement": "specific activity of TPST-1 extracts relative to TPST-2 extracts assayed in parallel", "setting": "[2]", "result": "21-fold higher using the HCII peptide as substrate"}
    ]}
  ]
}
